# Data: patent US20220332804A1 (CSL INNOVATION, published 2022)
# T1: human C2 K430A (human, UniProt P06681 21-752)
# T1 sequence: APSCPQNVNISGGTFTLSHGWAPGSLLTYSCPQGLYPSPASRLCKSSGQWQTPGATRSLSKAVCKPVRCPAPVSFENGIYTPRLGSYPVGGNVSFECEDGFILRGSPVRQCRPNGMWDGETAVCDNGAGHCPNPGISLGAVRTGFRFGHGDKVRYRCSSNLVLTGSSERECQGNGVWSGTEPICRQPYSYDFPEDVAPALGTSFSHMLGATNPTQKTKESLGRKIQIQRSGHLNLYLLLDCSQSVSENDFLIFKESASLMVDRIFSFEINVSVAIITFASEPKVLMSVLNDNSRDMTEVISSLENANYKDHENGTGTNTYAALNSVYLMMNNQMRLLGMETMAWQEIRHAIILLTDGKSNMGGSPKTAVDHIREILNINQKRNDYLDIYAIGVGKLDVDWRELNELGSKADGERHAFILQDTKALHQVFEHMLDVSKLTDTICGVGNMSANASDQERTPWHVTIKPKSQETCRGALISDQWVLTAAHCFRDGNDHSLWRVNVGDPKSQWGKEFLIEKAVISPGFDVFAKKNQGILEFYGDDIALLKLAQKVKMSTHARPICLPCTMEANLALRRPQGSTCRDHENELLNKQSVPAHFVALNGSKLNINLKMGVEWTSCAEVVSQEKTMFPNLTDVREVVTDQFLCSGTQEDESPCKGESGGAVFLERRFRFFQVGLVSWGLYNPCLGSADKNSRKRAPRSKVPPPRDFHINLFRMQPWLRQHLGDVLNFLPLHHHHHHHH
# T2: human C2 L453A (human, UniProt P06681 21-752)
# T2 sequence: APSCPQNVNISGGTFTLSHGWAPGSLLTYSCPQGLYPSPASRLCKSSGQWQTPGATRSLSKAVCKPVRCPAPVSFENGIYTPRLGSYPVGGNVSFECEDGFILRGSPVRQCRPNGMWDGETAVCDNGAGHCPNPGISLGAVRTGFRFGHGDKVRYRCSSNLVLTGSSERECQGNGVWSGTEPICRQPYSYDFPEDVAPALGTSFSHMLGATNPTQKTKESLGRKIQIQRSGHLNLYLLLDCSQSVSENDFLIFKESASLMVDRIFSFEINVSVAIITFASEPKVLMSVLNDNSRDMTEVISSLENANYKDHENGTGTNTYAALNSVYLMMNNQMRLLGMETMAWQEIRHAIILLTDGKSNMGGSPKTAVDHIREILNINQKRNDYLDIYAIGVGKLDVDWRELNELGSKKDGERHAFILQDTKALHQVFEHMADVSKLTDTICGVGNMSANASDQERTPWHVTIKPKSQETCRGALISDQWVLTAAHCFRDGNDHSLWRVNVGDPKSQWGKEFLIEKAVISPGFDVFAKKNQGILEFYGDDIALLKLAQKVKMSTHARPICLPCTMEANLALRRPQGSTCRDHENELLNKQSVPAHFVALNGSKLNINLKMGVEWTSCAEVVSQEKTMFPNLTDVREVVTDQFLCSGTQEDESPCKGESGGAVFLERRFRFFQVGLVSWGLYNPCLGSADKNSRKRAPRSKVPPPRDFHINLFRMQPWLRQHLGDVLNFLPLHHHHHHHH
# T3: human C2 V455A (human, UniProt P06681 21-752)
# T3 sequence: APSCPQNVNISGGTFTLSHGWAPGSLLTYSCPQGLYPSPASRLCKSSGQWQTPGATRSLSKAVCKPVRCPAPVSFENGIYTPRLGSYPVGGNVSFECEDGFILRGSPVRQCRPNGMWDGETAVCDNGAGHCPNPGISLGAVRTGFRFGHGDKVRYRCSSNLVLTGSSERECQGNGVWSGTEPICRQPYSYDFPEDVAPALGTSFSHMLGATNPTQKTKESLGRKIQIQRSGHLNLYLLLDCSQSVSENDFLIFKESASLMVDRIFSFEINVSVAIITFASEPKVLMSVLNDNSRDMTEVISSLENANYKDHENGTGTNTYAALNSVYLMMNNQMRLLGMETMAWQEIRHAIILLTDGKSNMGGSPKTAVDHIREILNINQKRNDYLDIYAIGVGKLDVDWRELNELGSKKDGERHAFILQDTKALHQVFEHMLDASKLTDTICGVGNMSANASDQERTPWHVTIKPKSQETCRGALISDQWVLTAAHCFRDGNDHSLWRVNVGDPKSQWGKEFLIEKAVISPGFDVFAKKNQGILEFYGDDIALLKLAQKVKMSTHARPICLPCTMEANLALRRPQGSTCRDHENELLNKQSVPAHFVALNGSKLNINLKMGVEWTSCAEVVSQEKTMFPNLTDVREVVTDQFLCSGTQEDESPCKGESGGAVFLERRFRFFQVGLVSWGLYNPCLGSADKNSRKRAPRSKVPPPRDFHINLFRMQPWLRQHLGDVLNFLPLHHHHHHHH
# T4: human C2 Y558A (human, UniProt P06681 21-752)
# T4 sequence: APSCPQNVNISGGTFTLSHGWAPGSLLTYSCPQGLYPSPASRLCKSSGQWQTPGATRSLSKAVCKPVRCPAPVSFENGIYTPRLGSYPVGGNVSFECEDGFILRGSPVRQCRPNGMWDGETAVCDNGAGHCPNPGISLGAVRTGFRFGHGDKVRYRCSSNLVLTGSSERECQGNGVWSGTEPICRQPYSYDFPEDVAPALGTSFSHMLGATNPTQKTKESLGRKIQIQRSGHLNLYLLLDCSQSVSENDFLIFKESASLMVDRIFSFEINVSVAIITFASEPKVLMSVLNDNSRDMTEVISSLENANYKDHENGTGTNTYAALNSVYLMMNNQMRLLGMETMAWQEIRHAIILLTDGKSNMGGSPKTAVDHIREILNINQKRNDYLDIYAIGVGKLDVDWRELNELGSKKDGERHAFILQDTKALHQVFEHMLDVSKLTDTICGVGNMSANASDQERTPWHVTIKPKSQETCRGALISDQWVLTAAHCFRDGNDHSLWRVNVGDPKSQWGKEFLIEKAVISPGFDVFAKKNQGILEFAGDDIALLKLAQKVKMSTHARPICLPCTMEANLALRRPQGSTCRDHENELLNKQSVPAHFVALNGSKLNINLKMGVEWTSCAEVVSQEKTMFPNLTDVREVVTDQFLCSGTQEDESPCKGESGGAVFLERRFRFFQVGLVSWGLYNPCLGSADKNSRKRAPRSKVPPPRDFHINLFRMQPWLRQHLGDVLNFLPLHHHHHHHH
# Legend:
# Test in all cases: SPR, antibody captured, C2 as analyte
# [1] = molecular target: T1, human C2 K430A
# [2] = molecular target: T2, human C2 L453A
# [3] = molecular target: T3, human C2 V455A
# [4] = molecular target: T4, human C2 Y558A;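 also: biacore SPR at 37 °C, anti-C2 mAbs captured via goat anti-human IgG on CM5 chips, double-referenced sensorgrams fit to a 1:1 kinetic or steady-state model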
binder,measurement,setting,value
"RF16-242 (antibody, human IgG4 S228P, lambda, V domains shown, pH-dependent anti-C2 antibody from a phage display library) VH: EVQLLQSGAEVKKPGESLKISCKGSGYSFTSYWIGWVRQMPGKGLEWMGIIYPGDSDTRYSPSFQGQVTISADKSISTAYLQWSSLKASDTAMYYCARRGHYGDYFDYWGQGTLVTVSS VL: SYELTQPPSVSVSPGQTARITCSGDALPKKYAYWYHQKSGQAPVLVIYEDRRRPSEIPERFSGSSSGTMATLTITGAQVEDEGVYFCYSRDRAGNQRVFGGGTQLTVLG",Kd,[1],91 nM
same,Kd,[2],6.8 nM
same,Kd,[3],5.9 nM
"RF16-226 (antibody, human IgG4 S228P, lambda, pH-dependent anti-C2 antibody from a phage display library; also called WT) heavy: not shown light: SYELTQPPSVSVSPGQTARITCSGDALTSKYVAWYQQKSGLAPLLVIYEDTRRPSGIPAKFSGSSSGSVATLTISGAHGDDEADYYCYSTDASGHQRVFGGGTKLTVLSQPKAAPSVTLFPPSSEELQANKATLVCLISDFYPGAVTVAWKADGSPVKAGVETTKPSKQSNNKYAASSYLSLTPEQWKSHRSYSCQVTHEGSTVEKTVAPTECS",Kd,[4],158 nM
